Here are results for 28 molecules from patent US20210261671A1 (HARPOON THERAPEUTICS, published 2021).

B1: FLL107 (VHH)
VHH: QVQLQESGGGLVQAGGSLRLSCAASGRTFSSYAMGWFRQAPGKEREFVAAISWSGSNTYYADSVKGRFTISRDNAKNTVYLQMDSLKPEDTAVYYCAAGGSTRVVVTTTPVVKYWGQGTQVTVSS
notes: llama anti-FLT3 variable domain; E. coli periplasmic extract
B2: FLL141 (VHH)
VHH: B1 VHH with K43M, S56Y, N57S, N74D
notes: as for B1
B3: FLL78 (VHH)
VHH: B1 VHH with L11W, N57S, Q82L
notes: as for B1
B4: FLL61 (VHH)
VHH: B1 VHH with G26E, S56G, N57S, V111I
notes: as for B1
B5: FLL4 (VHH)
VHH: B1 VHH with G26E, A33T, I51M, S56G, N57S
notes: as for B1
B6: FLL34 (VHH)
VHH: B1 VHH with M34L, S56G, N74D
notes: as for B1
B7: FLL190 (VHH)
VHH: QVQLQESGGGLVQAGGSLTLSCTASGSTFSINHFSWYRQAPGKQRELVAFISSDGVSIDVESVKGRFTISGDNDKNTAYLQMNGLKPEDTAVYYCYYRGFWGQGTQVTVSS
notes: as for B1
B8: FLL43 (VHH)
VHH: B7 VHH with A14P, S35A, V56R, I58T, F100S
notes: as for B1
B9: FLL116 (VHH)
VHH: QVQLQESGGGLVQAGGSLRLSCAASGVTFSINYIDWYRQAPGKQREWVAQITRDSNSFYADSVKGRFAISRDNAKNTVYLQMNSLKPEDTAVYYCRVLSYWGQGTQVTVSS
notes: as for B1
B10: FLL146 (VHH)
VHH: B9 VHH with S55D, N56T, S84N, K86R, V97L, Y100F
notes: as for B1
B11: FLL32 (VHH)
VHH: B9 VHH with A23Q, S30N, K43R, N56T, S57R, T77M, M82L, V97I
notes: as for B1
B12: FLL101 (VHH)
VHH: B9 VHH with S84N
notes: as for B1
B13: FLL14 (VHH)
VHH: B9 VHH with V97L
notes: as for B1
B14: FLL187 (VHH)
VHH: B9 VHH with A14P, D72E
notes: as for B1
B15: FLL51 (VHH)
VHH: B9 VHH with A14P, V27F, T28D, N32S, K43N, Q44E, D54G, S55G, N56D, V97I
notes: as for B1
B16: FLL137 (VHH)
VHH: B9 VHH with V27S, S30N, I31N, N32Y, Y33A, I34M, Y37F, N56S
notes: as for B1
B17: FLL129 (VHH)
VHH: B9 VHH with I31A, N32S, K43N, Q44E, D54G, S55G, N56D
notes: as for B1
B18: FLL179 (VHH)
VHH: B9 VHH with A23K, S55G, N56S, V97I, Y100D
notes: as for B1
B19: FLL181 (VHH)
VHH: B9 VHH with G16D, I31A, N32S, K43N, Q44E, D54G, S55G, N56D
notes: as for B1
B20: FLL103 (VHH)
VHH: B9 VHH with A23E, V27P, I69V
notes: as for B1
B21: FLL77 (VHH)
VHH: B9 VHH with A14P, N32S, K43N, Q44E, D54G, S55G, N56D, V97I
notes: as for B1
B22: FLL97 (VHH)
VHH: B9 VHH with I69V
notes: as for B1
B23: FLL178 (VHH)
VHH: QVQLQESGGGLVQPGGSLRLSCAASGFTFSDYAMSWVRQAPGKGLEWVSGISSGGYKIGYTDSTKGRFTISRDNAKNTLYLQMNSLTAEDTAVYYCAKGTQWSWSLRDNTSRGQGTQVTVSS
notes: as for B1
B24: FLL27 (VHH)
VHH: B23 VHH with A23K, D31S, T87N, S105A, N109S
notes: as for B1
B25: FLL160 (VHH)
VHH: QVQLQESGGGLVQAGDSLRLSCATSGRTFNLYRVGWFRQAPGKEREFVARITWSADITQYADSVKGRFTISRDNAKNTVYLQMNSLKPEDTAIYYCATTLRKSSGIYHVDDYDDWGQGTQVTVSS
notes: as for B1
B26: FLL173 (VHH)
VHH: B25 VHH with D16G, A61T, V109T, D114Y
notes: as for B1
B27: FLL1 (VHH)
VHH: QVQLQESGGGLVQAGGSLRLSCAASGRTFSTLTVAWFRQAPGKEREFVVASIPSGSNTGYAESVKGRFTISRDIAKNTVYLQMNSLKPEDTAMYFCAARIYFGSSRGYDYWGQGTQVTVSS
notes: as for B1
B28: FLL26 (VHH)
VHH: B27 VHH with S30T, L32Y, V48L, S54T, G59A, D73G, I74N, F95Y, I100T
notes: as for B1

Substitutions are numbered along the chain they refer to.

One experiment deals with T1, human FLT3 protein (human, UniProt P36888 27-541, limits assumed).
T1 construct: protein coated in the screening ELISA; also called ELISA FLT3
The experiment can be described thus: colorimetric ELISA, signal over control wells lacking FLT3. From the text: (§1) Llamas were immunized with purified FLT3 protein expressed in Expi293 cells. A phage display library for expression of heavy variable antibody domains was constructed from circulating B cells isolated from the immunized llamas (See van der Linden, de Geus, Stok, Bos, van Wassenaar, Verrips, and Frenken. 2000. J Immunol Methods 240:185-195). Phage clones were screened for binding to FLT3 by expressing llama anti-FLT3 proteins in E. coli, preparing periplasmic extracts, and performing colorimetric ELISAs.
(In general: ELISA stands for enzyme-linked immunosorbent assay.)
As to B1, the FLT3/control is 11 ratio.
Same read-out and setting: the figure for B2 is 28 ratio; for B3 it is 27 ratio; for B4 it is 25 ratio.
Turning to B5, the FLT3/control worked out at 43 ratio.
On the same count and under the same terms, the figure for B6 is 39 ratio; for B7 it is 43 ratio.
B8: the FLT3/control amounted to 12 ratio.
The same measure, in the same setting: the figure for B9 is 5 ratio; for B10 it is 4 ratio; for B11 it is 5 ratio.
On the same count and under the same terms, the figure for B12 is 3 ratio; for B13 it is 5 ratio; for B14 it is 18 ratio.
The same measure, in the same setting: the figure for B15 is 16 ratio; for B16 it is 8 ratio; for B17 it is 9 ratio.
As to B18, the FLT3/control is 17 ratio.
The same measure, in the same setting: the figure for B19 is 5 ratio.
Still for that read-out and setting: the figure for B20 is 28 ratio; for B21 it is 22 ratio.
Still for that read-out and setting: the figure for B22 is 7 ratio.
As to B23, the FLT3/control was found to be 48 ratio.
B24 yielded an FLT3/control of 10 ratio.
On to B25, for which the FLT3/control was 9 ratio.
For the molecule B26, the FLT3/control is 6 ratio.
The same measure, in the same setting: the figure for B27 is 11 ratio; for B28 it is 4 ratio.

Another experiment deals with T1, human FLT3 protein. The experiment can be described thus: colorimetric ELISA, periplasmic extract.
Excerpt: as §1
In the case of B1, the “ELISA FLT3 (absorbance)” value amounted to 3.8 absorbance.
Consider B2, for which the “ELISA FLT3 (absorbance)” value is 4 absorbance.
As to B3, the “ELISA FLT3 (absorbance)” value came to 4 absorbance.
With B4, the “ELISA FLT3 (absorbance)” value turned out to be 3.9 absorbance.
Same read-out and setting: the figure for B5 is 3.7 absorbance; for B6 it is 4 absorbance; for B7 it is 4 absorbance.
The same measure, in the same setting: the figure for B8 is 2 absorbance; for B9 it is 1.1 absorbance.
Take B10: the “ELISA FLT3 (absorbance)” value is 0.9 absorbance.
Same read-out and setting: the figure for B11 is 1.6 absorbance; for B12 it is 1.7 absorbance; for B13 it is 1.8 absorbance.
Same read-out and setting: the figure for B14 is 1.9 absorbance; for B15 it is 2.9 absorbance.
Consider B16, for which the “ELISA FLT3 (absorbance)” value was 1.8 absorbance.
As to B17, the “ELISA FLT3 (absorbance)” value stood at 2.6 absorbance.
On the same count and under the same terms, the figure for B18 is 3.7 absorbance.
Still for that read-out and setting: the figure for B19 is 3.2 absorbance; for B20 it is 3.8 absorbance.
On the same count and under the same terms, the figure for B21 is 4 absorbance; for B22 it is 1.4 absorbance.
For B23, the “ELISA FLT3 (absorbance)” value was found to be 4 absorbance.
For B24, the “ELISA FLT3 (absorbance)” value amounted to 4 absorbance.
Same read-out and setting: the figure for B25 is 0.7 absorbance.
On the same count and under the same terms, the figure for B26 is 0.5 absorbance.
For the molecule B27, the “ELISA FLT3 (absorbance)” value turned out to be 3.4 absorbance.
The same measure, in the same setting: the figure for B28 is 2.9 absorbance.
